Our source for the Km values is paper PMC12615762.

Substrate in the series: NCCC(=O)N[C@@H](Cc1cnc[nH]1)C(=O)O
The series is described as follows: purified protein. The note with it: SAM.

B1: carnosine N-methyltransferase (CNMT, CARNMT1, C9orf41) (Homo sapiens) (protein)
chain: MQRRRRPPPPTSRLPEGCGGGGGGSEEVEVQFSAGRWGSAAAVSAAAAAATRSTEEEEERLEREHFWKIINAFRYYGTSMHERVNRTERQFRSLPANQQKLLPQFLLHLDKIRKCIDHNQEILLTIVNDCIHMFENKEYGEDGNGKIMPASTFDMDKLKSTLKQFVRDWSETGKAERDACYQPIIKEILKNFPKERWDPSKVNILVPGAGLGRLAWEIAMLGYACQGNEWSFFMLFSSNFVLNRCSEINKYKLYPWIHQFSNNRRSADQIRPIFFPDVDPHSLPPGSNFSMTAGDFQEIYSECNTWDCIATCFFIDTAHNVIDYIDTIWKILKPGGIWINLGPLLYHFENLANELSIELSYEDIKNVVLQYGFKVEVEKESVLSTYTVNDLSMMKYYYECVLFVVRKPQ
One may read the Km as the substrate concentration at which the rate is half of its maximum. Regarding B1, the Km stood at 4.631 µM.
